Consider one substance from US20040013647A1.

The assay addresses 508F(Fv)-CBD (508 scFv mutant C96F fused to CBD) (Clostridium thermocellum) (UniProt Q06851). Kind of assay: competitive ELISA, soluble βAP(1-16) pre-incubated with 508F(Fv)-CBD before βAP coated wells. Background: An ELISA detects its analyte on a solid surface through an enzyme-linked reagent.

As for “βAP(1-16), β-amyloid 1-16 amino acid peptide”, the concentration for half-maximal inhibition (IC50) (commonly the point on the concentration scale where inhibition reaches its midpoint) stood at 1000 nM.
